Source: the supplement of paper PMC7877785
± gives the uncertainty stated by the source.

Test: self-splicing fitness, log relative to wild type (ln ratio); higher = more splicing; Tetrahymena group I intron in knt gene, E. coli kanamycin selection, DiMSum; sequences stand for … in CUCUCU…GGAGGGAAAAGUUAUCAGGCAUGCACCUGGUAGCUAGUCUUUAAACCAAUAGAUUGCAUCGGUUUAAAAGGCAAGACCGUCAAAUUGCGGGAAAGGGGUCAACAGCCGUUCAGUACCAAGUCUCAGGGGAAACUUUGAGAUGGCCUUGCAAAGGGUAUGGUAAUAAGCUGACGGACAUGGUCCUAACCACGCAGCCAAGUCCUAAGUCAACAGAUCUUCUGUUGAUAUGGAUGCAGUUCACAGACUAAAUGUCGGUCGGGGAAGAUGUAUUCUUCUCAUAAGAUAUAGUCGGACCUCUCCUUAAUGGGAGCUAGCGGAUGAAGUGAUGCAACACUGGAGCCGCUGGGAACUAAUUUGUAUGCGAAAGUAUAUUGAUUAGUUUUGGAGUACUCGUGGUCG
In short: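 DiMSum derived fitness as the error-weighted combination of fold changes across replicates, kanamycin versus no kanamycin, normalised to wild type. E. coli BL21(DE3) held the library, which randomised all eight P1ex-region intron nucleotides within the knt kanamycin-resistance gene on pET-22b(+). Six replicate transformations grew overnight at 37°C or 30°C on LB agar with or without 25 μg/mL kanamycin, also containing 100 μg/mL carbenicillin, 50 μM IPTG and 0.2% rhamnose, and pooled colonies were amplicon-sequenced on an Illumina HiSeq 2500.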

Sequence	self-splicing fitness (ln) (30 °C)	self-splicing fitness (ln) (37 °C)
AGCAAGCAAUAUUACGUUCC	-1.21 ± 0.12	-0.544 ± 0.13
AGCCAGCAAUAUUACGAAAG	-3.13 ± 0.22	-3.22 ± 0.38
AGCCAGCAAUAUUACGACAG	-3.67 ± 0.27	-2.74 ± 0.27
AGCCAGCAAUAUUACGAGAG	-4.55 ± 0.27	-3.02 ± 0.21
AGCCAGCAAUAUUACGAGCG	-1.36 ± 0.095	-0.0302 ± 0.13
AGCCAGCAAUAUUACGCACU	-0.425 ± 0.094	-0.259 ± 0.12
AGCCAGCAAUAUUACGCUCU	-1.94 ± 0.1	-0.912 ± 0.13
AGCCAGCAAUAUUACGCUGA	-2.75 ± 0.16	-1.87 ± 0.15
AGCCAGCAAUAUUACGGGGG	-3.73 ± 0.24	-1.99 ± 0.21
AGCCAGCAAUAUUACGGGGU	-4.08 ± 0.19	-2.22 ± 0.15
AGCCAGCAAUAUUACGGUCC	-1.12 ± 0.081	-0.461 ± 0.12
AGCCAGCAAUAUUACGUAAG	-2.38 ± 0.057	-1.34 ± 0.078
AGCCAGCAAUAUUACGUAGU	-2.72 ± 0.12	-1.83 ± 0.14
AGCCAGCAAUAUUACGUAUG	-2.08 ± 0.089	-3.2 ± 0.19
AGCCAGCAAUAUUACGUCGC	-3.44 ± 0.35	-2.74 ± 0.21
AGCCAGCAAUAUUACGUGGU	-3.52 ± 0.14	-3.58 ± 0.2
AGCCAGCAAUAUUACGUUUC	-3.43 ± 0.18	–
AGCGAGCAAUAUUACGAACU	-2.3 ± 0.42	-1.17 ± 0.29
AGCGAGCAAUAUUACGAAGU	-3.59 ± 0.29	-1.57 ± 0.21
AGCGAGCAAUAUUACGACAU	-1.32 ± 0.015	-0.624 ± 0.034
AGCGAGCAAUAUUACGAGCU	-3.17 ± 0.24	-2.49 ± 0.22
AGCGAGCAAUAUUACGAUUA	-2.78 ± 0.23	-2.15 ± 0.23
AGCGAGCAAUAUUACGCACA	-2.76 ± 0.29	-1.06 ± 0.18
AGCGAGCAAUAUUACGCAGG	-2.43 ± 0.24	–
AGCGAGCAAUAUUACGCAUA	–	-1.77 ± 0.24

Sequence	self-splicing fitness (ln) (30 °C)	self-splicing fitness (ln) (37 °C)
AGCGAGCAAUAUUACGCAUG	-3.33 ± 0.22	-1.48 ± 0.18
AGCGAGCAAUAUUACGCAUU	-2.63 ± 0.24	-2.04 ± 0.2
AGCGAGCAAUAUUACGCUUU	–	-2.89 ± 0.27
AGCGAGCAAUAUUACGGAUU	–	-1.96 ± 0.35
AGCGAGCAAUAUUACGGCUC	-3.06 ± 0.34	-2.06 ± 0.45
AGCGAGCAAUAUUACGGGCU	–	-1.59 ± 0.24
AGCGAGCAAUAUUACGGUAC	-3.58 ± 0.36	–
AGCGAGCAAUAUUACGGUGA	-3.59 ± 0.21	-2.77 ± 0.15
AGCGAGCAAUAUUACGGUUU	-2.1 ± 0.18	-0.574 ± 0.15
AGCGAGCAAUAUUACGUGCU	-4.05 ± 0.29	-1.41 ± 0.23
AGCGAGCAAUAUUACGUUGG	-2.04 ± 0.12	-3.5 ± 0.46
AGCUAGCAAUAUUACGAAAA	-3.04 ± 0.38	-1.66 ± 0.23
AGCUAGCAAUAUUACGAAUU	-1.74 ± 0.11	-1.14 ± 0.13
AGCUAGCAAUAUUACGACCG	-1.53 ± 0.1	-1.06 ± 0.13
AGCUAGCAAUAUUACGAGAC	-2.16 ± 0.24	-2.14 ± 0.31
AGCUAGCAAUAUUACGAUGA	-2.51 ± 0.21	-2.54 ± 0.15
AGCUAGCAAUAUUACGCCGU	-1.23 ± 0.13	-1.2 ± 0.16
AGCUAGCAAUAUUACGCUCU	-2.24 ± 0.18	-1.57 ± 0.24
AGCUAGCAAUAUUACGGCGA	-0.581 ± 0.081	0.0269 ± 0.12
AGCUAGCAAUAUUACGGGAC	-3.37 ± 0.23	-1.84 ± 0.24
AGCUAGCAAUAUUACGGUUU	-2.66 ± 0.14	-1.96 ± 0.14
AGCUAGCAAUAUUACGUAUG	-2.52 ± 0.15	-0.829 ± 0.12
AGCUAGCAAUAUUACGUAUU	-3.8 ± 0.23	-1.35 ± 0.15
AGCUAGCAAUAUUACGUCCC	-1.33 ± 0.21	0.355 ± 0.22
AGCUAGCAAUAUUACGUGUA	-3.86 ± 0.18	-1.48 ± 0.12

Sequence	self-splicing fitness (ln) (30 °C)	self-splicing fitness (ln) (37 °C)
AGCUAGCAAUAUUACGUUCC	-0.609 ± 0.11	-1.76 ± 0.17
AGCUAGCAAUAUUACGUUGC	-3.91 ± 0.25	-3.13 ± 0.28
AGGAAGCAAUAUUACGAAUG	-4.53 ± 0.46	-2.8 ± 0.28
AGGAAGCAAUAUUACGACCA	-0.504 ± 0.06	-0.317 ± 0.096
AGGAAGCAAUAUUACGACGA	-0.678 ± 0.092	-0.0243 ± 0.13
AGGAAGCAAUAUUACGAGCG	-1.96 ± 0.24	-1.08 ± 0.22
AGGAAGCAAUAUUACGAUUU	-0.378 ± 0.078	0.0421 ± 0.11
AGGAAGCAAUAUUACGCAUA	-2.39 ± 0.18	-1.15 ± 0.16
AGGAAGCAAUAUUACGCGCA	-0.555 ± 0.13	0.268 ± 0.16
AGGAAGCAAUAUUACGCUAC	-3.48 ± 0.41	-2.99 ± 0.47
AGGAAGCAAUAUUACGCUCG	-0.643 ± 0.16	-0.865 ± 0.21
AGGAAGCAAUAUUACGCUGU	-2.29 ± 0.29	–
AGGAAGCAAUAUUACGGACA	-0.516 ± 0.12	-0.384 ± 0.15
AGGAAGCAAUAUUACGGACC	-0.483 ± 0.27	0.238 ± 0.27
AGGAAGCAAUAUUACGGCAA	-1.52 ± 0.096	-0.574 ± 0.12
AGGAAGCAAUAUUACGGCAU	-1.28 ± 0.13	-0.506 ± 0.15
AGGAAGCAAUAUUACGGGAG	-2.22 ± 0.19	-2.95 ± 0.37
AGGAAGCAAUAUUACGGGCC	-3.5 ± 0.42	-0.18 ± 0.2
AGGAAGCAAUAUUACGGGGC	-3.49 ± 0.26	-2.49 ± 0.24
AGGAAGCAAUAUUACGGGUG	-2.14 ± 0.091	-1.98 ± 0.11
AGGAAGCAAUAUUACGGUAG	-3.37 ± 0.36	-1.6 ± 0.31
AGGAAGCAAUAUUACGUAUC	-3.45 ± 0.22	-2.88 ± 0.15
AGGAAGCAAUAUUACGUCAC	-3.41 ± 0.2	-3.65 ± 0.3
AGGAAGCAAUAUUACGUCAG	-2.97 ± 0.25	-2.41 ± 0.33
AGGAAGCAAUAUUACGUCAU	-3.32 ± 0.16	-0.295 ± 0.12

Sequence	self-splicing fitness (ln) (30 °C)	self-splicing fitness (ln) (37 °C)
AGGAAGCAAUAUUACGUCCA	-0.764 ± 0.14	-0.0963 ± 0.22
AGGAAGCAAUAUUACGUUGC	-3.23 ± 0.37	-1.29 ± 0.41
AGGCAGCAAUAUUACGAACA	-1.45 ± 0.11	-0.167 ± 0.14
AGGCAGCAAUAUUACGAAUC	-2.29 ± 0.29	-2.07 ± 0.24
AGGCAGCAAUAUUACGAGCA	-1.96 ± 0.12	-0.225 ± 0.12
AGGCAGCAAUAUUACGAUAC	-2.06 ± 0.27	-1.42 ± 0.26
AGGCAGCAAUAUUACGAUCC	-0.222 ± 0.051	-0.211 ± 0.061
AGGCAGCAAUAUUACGCACA	-0.332 ± 0.092	0.275 ± 0.11
AGGCAGCAAUAUUACGCCCG	-1.26 ± 0.12	-0.431 ± 0.2
AGGCAGCAAUAUUACGCGGA	-2.08 ± 0.14	-0.664 ± 0.1
AGGCAGCAAUAUUACGCUAC	-2.44 ± 0.23	–
AGGCAGCAAUAUUACGCUGC	–	-2.5 ± 0.38
AGGCAGCAAUAUUACGCUUC	–	-1.31 ± 0.28
AGGCAGCAAUAUUACGCUUU	-3.17 ± 0.35	-1.41 ± 0.18
AGGCAGCAAUAUUACGGAAA	-2.91 ± 0.48	-2.14 ± 0.24
AGGCAGCAAUAUUACGGACG	-0.899 ± 0.067	-0.218 ± 0.095
AGGCAGCAAUAUUACGGCCG	-1.12 ± 0.13	-0.985 ± 0.17
AGGCAGCAAUAUUACGGGAG	-4.08 ± 0.22	-1.53 ± 0.12
AGGCAGCAAUAUUACGGUGC	-3.54 ± 0.16	-2.89 ± 0.2
AGGCAGCAAUAUUACGUACA	-0.585 ± 0.071	-0.742 ± 0.093
AGGCAGCAAUAUUACGUACC	-0.0574 ± 0.12	0.0331 ± 0.15
AGGCAGCAAUAUUACGUCAA	-1.25 ± 0.098	-0.465 ± 0.095
AGGCAGCAAUAUUACGUCCG	-1.16 ± 0.12	-0.519 ± 0.13
